Measurements from article PMC9662066 (Emerging Microbes & Infections, 2022).
Residue numbers refer to the chain shown, from its start.

B1: LY-CoV555 (antibody, V domains shown)
VH: QVQLVQSGAEVKKPGSSVKVSCKASGGTFSNYAISWVRQAPGQGLEWMGRIIPILGIANYAQKFQGRVTITADKSTSTAYMELSSLRSEDTAVYYCARGYYEARHYYYYYAMDVWGQGTAVTVSS
VL: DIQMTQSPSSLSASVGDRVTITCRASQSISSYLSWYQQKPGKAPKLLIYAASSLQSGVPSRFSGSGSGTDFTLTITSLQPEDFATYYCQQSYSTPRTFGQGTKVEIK
B2: MW01 (antibody, V domains shown)
VH: EVQLVQSGAEVKKPGSSVKVSCKASGGTFSSFSISWVRQAPGQGLEWMGRIIPVLGIANYAQEVQGRVTITADKSTSTAYMELSSLRSEDTAVYFCTTDRFVEPATGPFFDYWGQGTLVTVSS
VL: EIVMTQSPATLSVSPGERATLSCRASQSVSSNLAWYQQKPGQAPRLLIYGASTRATGIPARFSGSGSGTEFTLTISSLQSEDFAVYYCQQYSNWLTFGGGTKVEIK
B3: R1-32 (antibody, V domains shown)
VH: EVQLVESGAEVKKPGSSVKVSCKASGGTFSSYAISWVRQAPGQGLEWMGGIIPILGIANYAQKFQGRVTITADKSTSTAYMELSSLRSEDTAVYYCARENGYSGYGAAANFDLWGRGTLVTVSS
VL: QSVLTQPPSVSGAPGQRVTISCTGSSSNIGAGYDVHWYQQLPGTAPKLLIYGNSNRPSGVPDRFSGSKSGTSASLAITGLQAEDEADYYCQSYDSSLSGSVFGGGTKLTVL
B4: FC08 (antibody, V domains shown)
VH: QLLQQSGAEVKKPGSSVKVSCKASGGTFSSYAISWVRQAPGQGLEWMGGIIPIIGIANYAQKFQGRVTITADKSTSTAYMELSSLRSEDTAVYYCARERGYSGYGAAYYFDYWGQGTLVTVSS
VL: SVLTQPPSVSGAPGQRVTISCTGSSSNIGAGYDVHWYQQLPGTAPKLLIYGNSNRPSGVPDRFSGSKSGTSASLAITGLQAEDEADYYCQSYDSSLSGSVFGGGTKLTVL
B5: 2-15 (antibody, V domains shown)
VH: QVQLVQSGAEVKKPGASVRVSCKASGYTFTGYYMHWVRQAPGQGLEWMGWINPISDGTNYAQKFQGWVTMTRDTSISTVYMELSRLRSDDTAVYYCARGGSRCSGGNCYGWAYDAFDIWGQGTMITVSS
VL: QSALTQPASVSGSPGQSITISCTGTSSDVGGYNFVSWYQQHPGKAPKLMIYDVSKRPSGVSNRFSGSKSGNTASLTISGLQAEDEADCYCSSYTSSSTFVFGTGTKVTVL
notes: IgG1; IGHV1-2
B6: A19-61.1 (antibody, V domains shown)
VH: QVQLVESGGGVVQPGRSLRLSCAASGFTFSSYAFHWVRQAPGKGLEWVAVISYDGSNQYYADSVKGRFTISRDNSKNTLYLQMNSLRADDTAVYYCARDLAIAVAGTWHYYNGMDVWGQGTTVTVSS
VL: DIQMTQSPSSVSASVGDRVIITCRASQGISSWLAWYQQKPGKAPKVLIYDASSLQSGVPSRFSGSGYGTDFTLTISSLQPEDSATYYCQQAKSFPITFGQGTRLEIK
notes: IgG1; IGHV3-30
B7: C548 (antibody, V domains shown)
VH: QVQLVQSGAEVKKPGSSVKVSCKASGGTFSSYAISWVRQAPGQGLEWMGGIIPIFGTANYAQKFQGRVTITADESTSTAYMELSSLRSEDTAVYYCARREAYGPRDYYYYYGMDVWGQGTTVTVSS
VL: QSALTQPPSASASLGASVTLTCTLSSGYSNYKVDWYQQRPGKGPRFVMRVGTGGIVGSKGDGIPDRFSVLGSGLNRYLTIKNIQEEDESDYHCGADQGSGSNFVGVFGGGTKLTVG
notes: IgG1; IGHV1-69-encoded
B8: nCoV617 (antibody, V domains shown)
VH: QVQLVESGGGVVQPGRSLRLSCAASGFTFSSYAMHWVRQAPGKGLEWVALISYDGSNKYADSVKGRFTISRDNSKNTLYLQMNSLRAEDTAVYYCARGLGLRFLEWPISSYWGQGTLVTVSS
VL: not shown
notes: IgG1; IGHV3-30
B9: CV07-270 (antibody, V domains shown)
VH: QVQLVESGGGLVKPGGSLRLSCAASGFTFSDYYMTWIRQAPGKGLEWVSYISSSGSTIYYADSVKGRFTISRDNAKNSLYLQMNSLRAEDTAVYYCARARGSSGWYRIGTRWGNWFDPWGQGTLVTVSS
VL: B5 VL with F34Y, D52E, K55N, C88Y, T98N, F99V, T103G, K106M, V107L
B10: BD-667 (antibody, V domains shown)
VH: QVQLVESGGGLVKPGGSLRLSCAASGFRFSDYYMNWIRQAPGKGLEWISYIGSGGFATYYGDSVKGRFTVSRDDAENSLYLQMNSLRAEDTAVYYCARGVTSYSDNSGNYRTDDAFDIWGQGTMVTVSS
VL: EIVMTQSPATLSVSPGERATLSCRASQSVSRNLAWYQQRPGQAPRLLIYGASTRATGVAARFTGSGFGTEFTLTISGLQSEDFAVYYCQEYNNWPPWTFGQGTKVEIK
notes: IgG1; IGHV3-11

Target: T1, SARS-CoV-2 WT-RBD (SARS-CoV-2, UniProt P0DTC2)
T1 construct: not shown: 6-His, C-terminal, kept
Test: ELISA
Conditions: both partners purified

Row | Binder | binding result
1 | B1 | binds
2 | B2 | binds
3 | B3 | binds
4 | B4 | binds

Target: T1, SARS-CoV-2 WT-RBD
Test: BLI
Conditions: both partners purified

Row | Binder | binding result
5 | B5 | binds
6 | B6 | binds
7 | B7 | binds
8 | B8 | binds
9 | B9 | binds
10 | B10 | binds
